In assay [1] the target is plasma purified human complement protein C3 (human) (UniProt P01024). In words: cell-based or functional assay.
Assay [2] deals with human complement protein C3 (human) (UniProt P01024). In words: cell-based or functional assay.

The record followed here is US20240018502A1.

Sequence of plasma purified human complement protein C3 (human) (P01024 23-667, chain 1 of 2): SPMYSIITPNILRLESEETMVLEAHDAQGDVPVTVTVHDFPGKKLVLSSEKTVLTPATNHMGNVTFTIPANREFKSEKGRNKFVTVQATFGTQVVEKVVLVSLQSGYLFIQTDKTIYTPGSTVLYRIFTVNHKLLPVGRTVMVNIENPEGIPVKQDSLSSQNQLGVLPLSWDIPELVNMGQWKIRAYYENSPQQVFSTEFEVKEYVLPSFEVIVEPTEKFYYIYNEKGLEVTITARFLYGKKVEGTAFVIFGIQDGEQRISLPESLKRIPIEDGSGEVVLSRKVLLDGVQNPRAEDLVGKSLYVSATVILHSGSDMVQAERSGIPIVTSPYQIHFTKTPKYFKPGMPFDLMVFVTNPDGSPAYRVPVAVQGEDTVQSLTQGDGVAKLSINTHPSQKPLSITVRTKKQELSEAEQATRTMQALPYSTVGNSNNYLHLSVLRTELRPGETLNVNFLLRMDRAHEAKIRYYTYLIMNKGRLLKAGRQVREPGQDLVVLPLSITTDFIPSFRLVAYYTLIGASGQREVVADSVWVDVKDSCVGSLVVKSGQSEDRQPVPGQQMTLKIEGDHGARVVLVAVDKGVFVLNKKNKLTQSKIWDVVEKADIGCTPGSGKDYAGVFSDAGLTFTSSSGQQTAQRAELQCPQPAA
Sequence of plasma purified human complement protein C3 (human) (P01024 672-1663, chain 2 of 2): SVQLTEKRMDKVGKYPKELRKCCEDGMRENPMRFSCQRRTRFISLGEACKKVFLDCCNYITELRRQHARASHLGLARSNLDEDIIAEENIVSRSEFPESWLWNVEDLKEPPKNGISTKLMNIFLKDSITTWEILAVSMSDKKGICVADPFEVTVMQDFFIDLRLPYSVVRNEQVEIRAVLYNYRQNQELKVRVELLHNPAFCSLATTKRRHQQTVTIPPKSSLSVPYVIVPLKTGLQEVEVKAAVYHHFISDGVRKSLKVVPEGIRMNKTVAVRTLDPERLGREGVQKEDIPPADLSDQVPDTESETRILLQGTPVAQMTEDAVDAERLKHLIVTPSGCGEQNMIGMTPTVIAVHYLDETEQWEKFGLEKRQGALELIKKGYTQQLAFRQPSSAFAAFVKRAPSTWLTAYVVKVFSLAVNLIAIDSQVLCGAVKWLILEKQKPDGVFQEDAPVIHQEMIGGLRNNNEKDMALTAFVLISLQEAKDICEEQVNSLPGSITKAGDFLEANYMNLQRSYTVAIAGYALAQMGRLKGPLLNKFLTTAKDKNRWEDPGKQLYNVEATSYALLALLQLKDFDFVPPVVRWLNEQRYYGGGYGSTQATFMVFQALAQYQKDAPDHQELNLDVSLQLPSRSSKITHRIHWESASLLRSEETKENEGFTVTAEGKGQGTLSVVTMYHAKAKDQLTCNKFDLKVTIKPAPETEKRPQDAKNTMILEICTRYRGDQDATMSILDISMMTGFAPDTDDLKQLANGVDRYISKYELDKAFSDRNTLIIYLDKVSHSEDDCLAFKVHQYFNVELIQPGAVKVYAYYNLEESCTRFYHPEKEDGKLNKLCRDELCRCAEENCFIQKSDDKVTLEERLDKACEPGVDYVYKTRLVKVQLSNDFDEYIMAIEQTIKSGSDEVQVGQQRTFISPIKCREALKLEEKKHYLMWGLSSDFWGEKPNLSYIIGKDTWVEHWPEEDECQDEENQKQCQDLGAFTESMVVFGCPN
Sequence of human complement protein C3 (human) (P01024 23-667, chain 1 of 2): as the sequence (P01024 23-667, chain 1 of 2) above
Sequence of human complement protein C3 (human) (P01024 672-1663, chain 2 of 2): as the sequence (P01024 672-1663, chain 2 of 2) above

Turning to “MTSP-1 H40R/I41H/F97D/F99L/C122S/G151D/Q192G (from UniProt Q9Y5Y6 615-855) (enzyme)”, the EC50 of hC3 cleavage in assay [1] is 1530 nM.

For the substance “Q38Y/I41S/D60bT/F60eR/Y60gW/D96M/F97N/T98G/F99L/C122S/Q175L/Q192D (from UniProt Q9Y5Y6 615-855) (enzyme)”, the EC50 (nM), cleavage of purified hC3 in vitro in assay [2] is 3.75 nM.

“MTSP-1 H40R/I41H/Y60gL/F97D/F99L/C122S/G151N/Q175M/D217I/K224S (from UniProt Q9Y5Y6 615-855) (enzyme)” had an EC50 of hC3 cleavage in assay [1] of 7.41 nM.

On to “MTSP-1 protease domain Q38Y/I41S/D60bT/F60eR/Y60gW/D96M/F97N/T98G/F99L/C122S/Q175L/Q192D (from UniProt Q9Y5Y6 615-855) (enzyme)”, for which the EC50 hC3 cleavage in assay [1] is 3.75 nM.

In turn, “MTSP-1 H40R/I41H/F97D/F99L/C122S/Q175L/Q192G/D217Q/K224R (from UniProt Q9Y5Y6 615-855) (enzyme)” showed an EC50 of hC3 cleavage in assay [1] of 14.9 nM.
